Measured values as given in patent US20260008815A1, “CYCLIC PEPTIDE OR SALT THEREOF, AND USES THEREOF” (FUJIFILM Corporation, priority 2023, published 2026).
Numbered stars: 1 amine (or outer) side, 2 acyl side, 3 side chain; on linkers, the order of the positions; unused ones are H or OH. Bridge positions count the residues as written; N and C are the ends. Ends that are not written are not given here. acetyl = acetyl (haloacetyl before ring closure) on the side-chain amine, O=C(C[*:1])[*:2]; COCH2 = acetyl group that carries the bridge

What follows are substances tested against T1, Recombinant Human FGFR2 alpha (IIIc) Fc Chimera Protein (Homo sapiens, UniProt P21802) (assay: ELISA binding affinity of enzymatically synthesized peptide to FGFR). Conditions: ELISA luminescence signal at 10 nmol/L peptide, SEQ ID NO: 47 at 10 nmol/L standardized to 1; enzyme synthesis product.
T1 construct: Fc (chimera); purchased R&D systems 712-FR-050
In short: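 FGFR2 alpha (IIIc) Fc chimera (5 ng/well) was immobilized, and Myc-tagged peptide was bound 3 h at room temperature, then detected with anti-Myc antibody (2 h) and chemiluminescent substrate. Signal was corrected against FGFR-free wells. Score A–D was the luminescence at 10 nmol/L peptide, normalized to cyclic peptide SEQ ID NO: 47.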

T1 sequence (P21802 with tags, fused parts or gaps limits assumed): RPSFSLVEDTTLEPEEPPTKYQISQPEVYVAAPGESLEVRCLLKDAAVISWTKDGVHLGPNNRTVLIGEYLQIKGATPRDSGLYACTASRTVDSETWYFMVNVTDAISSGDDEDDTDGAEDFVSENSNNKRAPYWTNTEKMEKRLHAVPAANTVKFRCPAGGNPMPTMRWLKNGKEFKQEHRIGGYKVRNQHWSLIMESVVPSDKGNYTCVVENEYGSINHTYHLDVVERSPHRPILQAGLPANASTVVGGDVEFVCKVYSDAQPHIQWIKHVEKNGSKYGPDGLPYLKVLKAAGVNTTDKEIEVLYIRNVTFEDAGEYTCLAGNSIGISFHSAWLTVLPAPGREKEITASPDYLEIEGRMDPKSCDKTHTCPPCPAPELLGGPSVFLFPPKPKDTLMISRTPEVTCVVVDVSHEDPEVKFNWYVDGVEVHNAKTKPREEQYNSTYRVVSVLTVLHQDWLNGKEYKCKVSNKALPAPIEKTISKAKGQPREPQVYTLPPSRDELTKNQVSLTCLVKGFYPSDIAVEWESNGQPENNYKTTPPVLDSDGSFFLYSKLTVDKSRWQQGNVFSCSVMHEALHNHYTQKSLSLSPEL

| Substance | Evaluation result of binding affinity to FGFR |
| --- | --- |
| 119 (QCRYFWQYVLERYRVRLPK(COCH2)E; thioether 2-19 (inferred)) [compound 119] | A (0.7 or more) |
| 107 (YCTDNYIDDIQFWYLFLYK(COCH2)Q; thioether 2-19 (inferred)) [compound 107] | B (0.5 or more and less than 0.7) |
| 179 (YCERNYLDPEQYQYFIYFK(COCH2)Y; thioether 2-19 (inferred)) [compound 179] | A (0.7 or more) |
| 44 (ACEYNYWNQVQFTFLIAFK(COCH2)R; thioether 2-19 via acetyl) [compound 44] | B (0.5 or more and less than 0.7) |
| 128 (PCVQNYFNDLQWIFLQHYK(COCH2)R; thioether 2-19 (inferred)) [compound 128] | A (0.7 or more) |
| 120 (QCWYIQQYIWERYFLWHNK(COCH2)E; thioether 2-19 (inferred)) [compound 120] | C (0.1 or more and less than 0.5) |
| 48 (GCYWNEVQYYYLQQYKQ; Description of Artificial Sequence: Cyclic peptide) [compound 48] | A (0.7 or more) |
| 133 (ECLGNYFSHEQYQYLLQYK(COCH2)I; thioether 2-19 (inferred)) [compound 133] | A (0.7 or more) |
| 77 (YCPQNFINPVQWRYFQHYK(COCH2)N; thioether 2-19 (inferred)) [compound 77] | A (0.7 or more) |
| 113 (RCINYWSGQQFYFFQQYK(COCH2)F; thioether 2-18 (inferred)) [compound 113] | C (0.1 or more and less than 0.5) |
| 149 (RCEENYLDPEQYQYFIYFKY; Description of Artificial Sequence: Cyclic peptide) [compound 149] | A (0.7 or more) |
| 150 (HCEENYLDPEQYQYFIYFK(COCH2)Y; thioether 2-19 (inferred)) [compound 150] | A (0.7 or more) |
| 61 (KCPQNFINPAQWRYFQHYK(COCH2)N; thioether 2-19 (inferred)) [compound 61] | A (0.7 or more) |
| 71 (GCPQNFINPVQWRYFQHYK(COCH2)N; thioether 2-19 (inferred)) [compound 71] | A (0.7 or more) |
| 141 (FCEENYLDPEQYQYFIYFKY; Description of Artificial Sequence: Cyclic peptide) [compound 141] | A (0.7 or more) |
| 63 (KCPQNFINPVQWAYFQHYK(COCH2)N; thioether 2-19 (inferred)) [compound 63] | A (0.7 or more) |
| 72 (PCPQNFINPVQWRYFQHYK(COCH2)N; thioether 2-19 (inferred)) [compound 72] | A (0.7 or more) |
| 123 (QCQNFITEVQFTYFWHYK(COCH2)T; thioether 2-18 (inferred)) [compound 123] | A (0.7 or more) |
| 169 (YCEINYLDPEQYQYFIYFK(COCH2)Y; thioether 2-19 (inferred)) [compound 169] | A (0.7 or more) |
| 125 (YCRDNYFYLEQWQYLYLYK(COCH2)H; thioether 2-19 (inferred)) [compound 125] | A (0.7 or more) |
| 174 (YCENNYLDPEQYQYFIYFK(COCH2)Y; thioether 2-19 (inferred)) [compound 174] | A (0.7 or more) |
| 87 (QCPQNFINPVHWRYFQHYK(COCH2)N; thioether 2-19 (inferred)) [compound 87] | A (0.7 or more) |
| 140 (VCEENYLDPEQYQYFIYFKY; Description of Artificial Sequence: Cyclic peptide) [compound 140] | A (0.7 or more) |
| 96 (QCPQYFINPVQWRYFQHYK(COCH2)N; thioether 2-19) [compound 96] | C (0.1 or more and less than 0.5) |
| 42 (QCYFLSQYILERYKVHK(COCH2)L; thioether 2-17 via acetyl) [compound 42] | A (0.7 or more) |
| 144 (QCEENYLDPEQYQYFIYFKY; Description of Artificial Sequence: Cyclic peptide) [compound 144] | A (0.7 or more) |
| 183 (YCEEQYLDPEQYQYFIYFK(COCH2)Y; thioether 2-19 (inferred)) [compound 183] | C (0.1 or more and less than 0.5) |

More lines, now with the values ahead:

| Evaluation result of binding affinity to FGFR | Substance |
| --- | --- |
| A (0.7 or more) | 223 (YCEENYLDIEQYQYFIYFK(COCH2)Y; thioether 2-19 (inferred)) [compound 223] |
| A (0.7 or more) | 343 (YCEENYLDPEQYKYFIYFK(COCH2)Y; thioether 2-19) [compound 343] |
| A (0.7 or more) | 229 (YCEENYLDQEQYQYFIYFK(COCH2)Y; thioether 2-19 (inferred)) [compound 229] |
| C (0.1 or more and less than 0.5) | 368 (QCLIQDLYAYIFK(COCH2)L; thioether 2-13) [compound 368] |
| A (0.7 or more) | 267 (YCEENYLDPEQYDYFIYFK(COCH2)Y; thioether 2-19) [compound 267] |
| B (0.5 or more and less than 0.7) | 294 (YCEENYLDPEQYQYFIIFK(COCH2)Y; thioether 2-19) [compound 294] |
| C (0.1 or more and less than 0.5) | 186 (YCEENLLDPEQYQYFIYFK(COCH2)Y; thioether 2-19 (inferred)) [compound 186] |
| A (0.7 or more) | 250 (YCEENYLDPHQYQYFIYFK(COCH2)Y; thioether 2-19 (inferred)) [compound 250] |
| A (0.7 or more) | 286 (YCEENYLDPEQYQYFTYFK(COCH2)Y; thioether 2-19) [compound 286] |
| C (0.1 or more and less than 0.5) | 204 (YCEENYEDPEQYQYFIYFK(COCH2)Y; thioether 2-19 (inferred)) [compound 204] |
| C (0.1 or more and less than 0.5) | 375 (DCLQFIYQYLYTVK(COCH2)I; thioether 2-14) [compound 375] |
| A (0.7 or more) | 205 (YCEENYRDPEQYQYFIYFK(COCH2)Y; thioether 2-19 (inferred)) [compound 205] |
| A (0.7 or more) | 332 (YCEENYLDPEQYQYFAYFK(COCH2)Y; thioether 2-19 (inferred)) [compound 332] |
| A (0.7 or more) | 217 (YCEENYLTPEQYQYFIYFK(COCH2)Y; thioether 2-19 (inferred)) [compound 217] |
| A (0.7 or more) | 313 (YCEENYLDPEQYQYFIYFK(COCH2)W; thioether 2-19 (inferred)) [compound 313] |
| C (0.1 or more and less than 0.5) | 362 (LCYLYQYLYTTK(COCH2)Y; thioether 2-12) [compound 362] |

| Evaluation result of binding affinity to FGFR | Substance |
| --- | --- |
| A (0.7 or more) | 218 (YCEENYLEPEQYQYFIYFK(COCH2)Y; thioether 2-19 (inferred)) [compound 218] |
| C (0.1 or more and less than 0.5) | 274 (YCEENYLDPEQYQHFIYFK(COCH2)Y; thioether 2-19) [compound 274] |
| B (0.5 or more and less than 0.7) | 385 (QCAYYHLYQYLHQLK(COCH2)V; thioether 2-15 (inferred)) [compound 385] |
| A (0.7 or more) | 328 (YCEENYLAPEQYQYFIYFK(COCH2)Y; thioether 2-19 (inferred)) [compound 328] |
| C (0.1 or more and less than 0.5) | 292 (YCEENYLDPEQYQYFIPFK(COCH2)Y; thioether 2-19) [compound 292] |
| A (0.7 or more) | 302 (YCEENYLDPEQYQYFIDFK(COCH2)Y; thioether 2-19 (inferred)) [compound 302] |
| C (0.1 or more and less than 0.5) | 423 (WCFTEGIQSTVQLTYSYLYK(COCH2)L; thioether 2-20 via acetyl) [compound 423] |
| A (0.7 or more) | 391 (YCEENYLDPEQYQYFHYFK(COCH2)H; thioether 2-19 (inferred)) [compound 391] |
| B (0.5 or more and less than 0.7) | 291 (YCEENYLDPEQYQYFIGFK(COCH2)Y; thioether 2-19) [compound 291] |
| C (0.1 or more and less than 0.5) | 369 (DCLQFLYLYLYQK(COCH2)T; thioether 2-13) [compound 369] |
| A (0.7 or more) | 203 (YCEENYTDPEQYQYFIYFK(COCH2)Y; thioether 2-19 (inferred)) [compound 203] |
| A (0.7 or more) | 258 (YCEENYLDPEQYLYFIYFK(COCH2)Y; thioether 2-19 (inferred)) [compound 258] |
| C (0.1 or more and less than 0.5) | 338 (YCEENKLDPEQYQYFIYFK(COCH2)Y; thioether 2-19 (inferred)) [compound 338] |
| A (0.7 or more) | 270 (YCEENYLDPEQYHYFIYFK(COCH2)Y; thioether 2-19) [compound 270] |
| A (0.7 or more) | 281 (YCEENYLDPEQYQYFYYFK(COCH2)Y; thioether 2-19) [compound 281] |
